Experimental data from patent US20120095193A1 (published 2012).

T1: Human MMP1 (human, UniProt P03956 20-469, limits assumed)
T1 sequence (looked up): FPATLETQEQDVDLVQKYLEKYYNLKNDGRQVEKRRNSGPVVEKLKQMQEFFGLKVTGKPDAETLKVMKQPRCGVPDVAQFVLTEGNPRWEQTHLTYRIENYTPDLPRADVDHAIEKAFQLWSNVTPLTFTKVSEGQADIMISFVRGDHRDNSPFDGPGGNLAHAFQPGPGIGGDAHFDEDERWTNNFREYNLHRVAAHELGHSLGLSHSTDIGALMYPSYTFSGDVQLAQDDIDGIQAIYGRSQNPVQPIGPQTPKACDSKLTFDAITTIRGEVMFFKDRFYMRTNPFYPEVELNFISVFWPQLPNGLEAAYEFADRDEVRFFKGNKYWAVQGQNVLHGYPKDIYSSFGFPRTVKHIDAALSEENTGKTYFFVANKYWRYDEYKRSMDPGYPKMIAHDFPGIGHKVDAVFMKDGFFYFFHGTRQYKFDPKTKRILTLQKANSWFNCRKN

T2: Human ADAMTS4 (human, UniProt O75173 213-685, limits assumed)
T2 construct: also called aggrecanase-1
T2 sequence: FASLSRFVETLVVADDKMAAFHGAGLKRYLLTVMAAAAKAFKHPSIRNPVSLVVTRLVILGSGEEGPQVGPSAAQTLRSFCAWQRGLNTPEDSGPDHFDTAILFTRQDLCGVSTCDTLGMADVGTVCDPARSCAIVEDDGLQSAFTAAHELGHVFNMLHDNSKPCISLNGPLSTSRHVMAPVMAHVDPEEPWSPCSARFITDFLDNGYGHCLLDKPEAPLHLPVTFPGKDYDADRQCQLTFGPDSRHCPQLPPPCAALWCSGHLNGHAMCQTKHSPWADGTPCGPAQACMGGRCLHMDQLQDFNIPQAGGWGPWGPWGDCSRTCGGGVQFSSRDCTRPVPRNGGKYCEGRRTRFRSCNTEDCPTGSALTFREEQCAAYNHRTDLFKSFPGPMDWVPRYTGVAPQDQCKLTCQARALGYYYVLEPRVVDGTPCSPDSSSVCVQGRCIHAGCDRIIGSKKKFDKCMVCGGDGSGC

T3: Human ADAMTS13 (human, UniProt Q76LX8 75-685, limits assumed)
T3 sequence (looked up): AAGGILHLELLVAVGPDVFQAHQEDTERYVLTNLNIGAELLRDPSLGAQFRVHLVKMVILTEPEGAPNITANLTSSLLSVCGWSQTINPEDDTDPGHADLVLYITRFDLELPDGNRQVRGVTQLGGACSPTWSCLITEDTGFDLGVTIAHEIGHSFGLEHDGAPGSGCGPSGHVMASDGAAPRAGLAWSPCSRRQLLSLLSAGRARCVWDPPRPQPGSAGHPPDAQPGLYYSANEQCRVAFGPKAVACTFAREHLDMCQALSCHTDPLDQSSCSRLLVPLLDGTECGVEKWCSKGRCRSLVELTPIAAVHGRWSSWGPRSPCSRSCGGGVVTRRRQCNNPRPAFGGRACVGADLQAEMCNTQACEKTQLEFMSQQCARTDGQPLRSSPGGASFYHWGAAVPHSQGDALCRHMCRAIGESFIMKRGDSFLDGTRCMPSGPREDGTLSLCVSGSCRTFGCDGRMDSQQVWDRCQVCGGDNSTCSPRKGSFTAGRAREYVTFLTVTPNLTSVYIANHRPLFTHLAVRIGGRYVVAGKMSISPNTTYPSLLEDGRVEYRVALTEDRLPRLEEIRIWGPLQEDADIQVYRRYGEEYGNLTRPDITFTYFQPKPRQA

T4: Human ADAMTS1 (human, UniProt Q9UHI8 253-967, limits assumed)
T4 sequence (looked up): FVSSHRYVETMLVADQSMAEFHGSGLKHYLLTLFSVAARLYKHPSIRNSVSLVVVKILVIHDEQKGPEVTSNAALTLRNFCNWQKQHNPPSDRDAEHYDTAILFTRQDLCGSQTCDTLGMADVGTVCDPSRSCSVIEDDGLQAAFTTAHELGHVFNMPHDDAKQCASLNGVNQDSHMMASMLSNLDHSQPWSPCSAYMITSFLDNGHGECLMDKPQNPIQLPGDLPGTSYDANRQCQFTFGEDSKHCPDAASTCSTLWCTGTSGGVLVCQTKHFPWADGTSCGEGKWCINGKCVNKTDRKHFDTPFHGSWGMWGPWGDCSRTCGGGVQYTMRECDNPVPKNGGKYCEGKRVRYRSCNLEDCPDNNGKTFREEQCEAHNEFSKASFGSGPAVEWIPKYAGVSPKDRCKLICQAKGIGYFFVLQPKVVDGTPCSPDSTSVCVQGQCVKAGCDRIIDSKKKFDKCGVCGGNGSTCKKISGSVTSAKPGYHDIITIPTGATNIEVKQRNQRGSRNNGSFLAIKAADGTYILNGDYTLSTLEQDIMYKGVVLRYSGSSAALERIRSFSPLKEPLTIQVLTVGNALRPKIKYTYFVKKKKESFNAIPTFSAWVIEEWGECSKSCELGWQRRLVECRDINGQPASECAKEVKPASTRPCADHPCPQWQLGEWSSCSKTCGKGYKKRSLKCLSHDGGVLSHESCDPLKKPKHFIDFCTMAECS

T5: human ADAMTS5 (human, UniProt Q9UNA0 262-622, limits assumed)
T5 construct: Octet and ELISA used 'recombinant human ADAMTS5'; also called recombinant human ADAMTS5; ADAMTS5 (R&D Systems 2198-AD)
T5 sequence: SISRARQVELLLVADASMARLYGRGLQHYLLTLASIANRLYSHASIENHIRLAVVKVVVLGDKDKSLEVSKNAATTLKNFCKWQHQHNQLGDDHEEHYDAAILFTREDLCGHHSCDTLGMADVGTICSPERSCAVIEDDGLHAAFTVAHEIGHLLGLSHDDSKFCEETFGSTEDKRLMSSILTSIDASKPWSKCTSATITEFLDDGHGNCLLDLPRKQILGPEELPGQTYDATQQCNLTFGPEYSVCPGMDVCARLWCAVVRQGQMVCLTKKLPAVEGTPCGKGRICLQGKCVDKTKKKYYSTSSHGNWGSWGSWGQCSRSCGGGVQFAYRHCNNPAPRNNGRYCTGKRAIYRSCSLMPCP


Tests used:
[1] = target: Human MMP13 (human, UniProt P45452 20-471, limits assumed); assay: celTRF and Octet QK cross-reactivity
[2] = target: Human MMP9 (human, UniProt P14780 20-707, limits assumed); assay: celTRF and Octet QK cross-reactivity
Human MMP9, sequence (P14780 20-707 limits assumed): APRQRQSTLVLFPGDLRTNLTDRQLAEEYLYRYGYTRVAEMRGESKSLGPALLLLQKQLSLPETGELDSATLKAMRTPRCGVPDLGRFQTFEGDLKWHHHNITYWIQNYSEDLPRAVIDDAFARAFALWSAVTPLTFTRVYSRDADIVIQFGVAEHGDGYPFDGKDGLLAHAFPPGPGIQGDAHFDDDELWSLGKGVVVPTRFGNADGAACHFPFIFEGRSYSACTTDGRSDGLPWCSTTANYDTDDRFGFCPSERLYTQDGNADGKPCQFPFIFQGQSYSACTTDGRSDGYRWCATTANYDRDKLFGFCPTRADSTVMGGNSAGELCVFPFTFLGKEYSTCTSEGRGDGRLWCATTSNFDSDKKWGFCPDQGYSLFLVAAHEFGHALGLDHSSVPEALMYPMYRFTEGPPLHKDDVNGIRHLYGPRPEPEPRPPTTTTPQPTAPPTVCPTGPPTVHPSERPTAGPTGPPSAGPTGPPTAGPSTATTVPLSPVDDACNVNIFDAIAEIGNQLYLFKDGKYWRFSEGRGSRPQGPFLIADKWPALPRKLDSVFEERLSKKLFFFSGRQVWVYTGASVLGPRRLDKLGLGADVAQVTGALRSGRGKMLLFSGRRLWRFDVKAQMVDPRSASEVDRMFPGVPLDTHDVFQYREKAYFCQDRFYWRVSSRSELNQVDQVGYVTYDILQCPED

[3] = target: T1, Human MMP1; assay: celTRF and Octet QK cross-reactivity
[4] = target: Human MMP3 (human, UniProt P08254 18-477, limits assumed); assay: celTRF and Octet QK cross-reactivity
Human MMP3, sequence (P08254 18-477 limits assumed): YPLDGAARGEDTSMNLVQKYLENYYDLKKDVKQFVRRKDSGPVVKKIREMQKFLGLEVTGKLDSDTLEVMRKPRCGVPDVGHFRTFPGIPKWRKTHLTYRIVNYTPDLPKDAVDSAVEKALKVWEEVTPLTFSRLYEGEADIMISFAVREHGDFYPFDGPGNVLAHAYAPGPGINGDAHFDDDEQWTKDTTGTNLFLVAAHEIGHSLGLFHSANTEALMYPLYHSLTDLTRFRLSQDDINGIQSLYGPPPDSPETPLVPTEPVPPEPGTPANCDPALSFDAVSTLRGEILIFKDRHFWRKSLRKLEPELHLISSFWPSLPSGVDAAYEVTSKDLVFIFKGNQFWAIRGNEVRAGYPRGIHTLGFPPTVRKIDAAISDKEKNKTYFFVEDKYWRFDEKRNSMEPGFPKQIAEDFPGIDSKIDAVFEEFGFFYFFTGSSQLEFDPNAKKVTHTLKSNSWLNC

[5] = target: T2, Human ADAMTS4; assay: celTRF and Octet QK cross-reactivity
[6] = target: T3, Human ADAMTS13; assay: celTRF and Octet QK cross-reactivity
[7] = target: T4, Human ADAMTS1; assay: celTRF and Octet QK cross-reactivity
[8] = target: T5, human ADAMTS5; assay: Octet QK, purified murine mAb
[9] = target: T5, human ADAMTS5; assay: cell-based or functional assay
[10] = target: T5, human ADAMTS5; assay: Biacore, mAb down, no avidity
[11] = target: T5, human ADAMTS5; assay: Biacore, purified mAb captured on anti-human IgG, ADAMTS5 (R&D 2198-AD) at 64 nM, 1:1 fit
Method: (§1) Anti-human IgG (Biacore™, BR-1008-39) was immobilized on a CM5 chip by primary amine coupling. This surface was then used to capture the humanized antibodies, ADAMTS5 (R&D Systems 2198-AD) was then passed over the captured antibody at a single concentration of 64 nM, regeneration was carried out using 100 mM phosphoric acid followed by 3M MgCl₂. The binding curves were double referenced with buffer injection (i.e. 0 nM) and the data was fitted to the T100 analysis software using the 1:1 model. The run was carried out at 25° C., using HBS-EP as the running buffer. All antibodies were captured from tissue culture supernatants unless specified.

[12] = target: T5, human ADAMTS5; assay: Biacore, mAb from culture supernatant captured on anti-human IgG, ADAMTS5 (R&D 2198-AD) at 64 nM, 1:1 fit
Method: as §1

[13] = target: T5, human ADAMTS5; assay: Octet QK, antigen down, incl avidity
[14] = target: T5, human ADAMTS5; assay: Octet QK, purified mAb

Binder	binding result [1]	binding result [2]	binding result [3]	binding result [4]	binding result [5]	binding result [6]	binding result [7]	Kd [8] [nM]	Aggrecan Substrate Cleavage Neutralization IC50 [9] [nM]	Kd [10] [nM]	Kd [11] [nM]	koff [11] [s⁻¹]	kon [11] [M⁻¹ s⁻¹]	Kd [12] [nM]	koff [12] [s⁻¹]	kon [12] [M⁻¹ s⁻¹]	Kd [13] [nM]	Kd [14] [nM]
2D3.1D4 (antibody, V domains shown, Murine monoclonal antibody from a hybridoma) VH: EVKLEESGGGLVQPGGSMKLSCAASGITFSDAWMDWVRQSPEKGLEWVADIRNTANNHATFYAESVKGRFTISRDDSKSTVYLQMNTLRPEDTGIYYCTSPFAYWGQGTLVTVSA VL: DIVMTQSQKFMSTTVGDRVSITCKASQNVGTAVVWFQQKPGQSPKLLIYSASNRYTRVPDRFTGSGSGTDFTLTISNVQSEDLADYFCQQYVNYPFTFGSGTKLEIKR	no binding	no binding	no binding	no binding	no binding	no binding	no binding	0.0862	0.031									
BPC1622 (antibody, human IgG1, kappa, V domains shown, Chimeric: murine variable domains on human gamma 1 and kappa constant regions; also called 7B4 Chimera; Chimeric 7B4.1E11) VH: EVKLEESGGGLVQPGGSMKLSCAASGFTSSDAWMDWVRQSPEKGLEWVAEIRNKANNHARHYAESVKGRFTISRDDSKSSVYLQMNSLRAEDSGIYYCTRTYYYGSSYGYCDVWGTGTLVTVSS VL: DIQMTQSPASLSASVGETVTITCRTSENIYSYLAWYQQKQGKSPQLLVYNAKTLAEGVPSRFSGSGSGTQFSLKINSLQPEDFGSYSCQHHYGTPWTFGGGTKLEIKR										0.473	1.21	0.00106	872000	1.12	0.0013	1.16e+06	0.26	0.345
BPC1623 (antibody, human IgG1, kappa, V domains shown, Chimeric: murine variable domains on human gamma 1 and kappa constant regions; also called 12F4 Chimera; Chimeric 12F4.1H7) VH: EVKLEESGGGLVQPGGSMKLSCTASGFTFSDAWMDWVRQSPEKGLEWVAEIRHKANDHAIFYDESVKGRFTISRDDSKNIVYLQMNSLRPEDTGIYYCTSPFAYWGQGTLVTVSS VL: DIVMTQSQKFMSVTVGDRVSITCKASQSVGTTIVWYQQKPGQSPKLLIYSASNRHTGVPDRFTGSGSGTDFILTINNVQSEDLADYFCQQYTSYPFTFGSGTKLEIKR										0.051	0.0727	4.7e-05	646000	0.0774	4.82e-05	623000	0.0431	0.0799

Second part, the binder after the results:

binding result [1]	binding result [2]	binding result [3]	binding result [4]	binding result [5]	binding result [6]	binding result [7]	Kd [8] [nM]	Aggrecan Substrate Cleavage Neutralization IC50 [9] [nM]	Kd [10] [nM]	Kd [11] [nM]	koff [11] [s⁻¹]	kon [11] [M⁻¹ s⁻¹]	Kd [12] [nM]	koff [12] [s⁻¹]	kon [12] [M⁻¹ s⁻¹]	Kd [13] [nM]	Kd [14] [nM]	Binder
no binding	no binding	no binding	no binding	no binding	no binding	no binding	0.0824	0.769										3A12.1D7 (antibody, V domains shown, Murine monoclonal antibody from a hybridoma) VH: EVKFEESGGGLVQPGGSMKLSCAASGFIFSDAWMDWVRQSPEKGLEWVAEIRHKANDYAIFYDESVKGRFTISRDDSKSIVYLQMNNLRPEDTGIYYCTSPFAYWGQGTLVTVSA VL: DIVMTQSQKFMSVTVGDRVSITCKASQSVGTTIVWYQQKPGQSPKLLIYSASNRHTGVPDRFTGSGSGTDFILTISNVQSEDLADYFCQQYSSYPFTFGSGTKLEIKR
no binding	no binding	no binding	no binding	no binding	no binding	no binding	0.126	0.05										5F10.1H6 (antibody, V domains shown, Murine monoclonal antibody from a hybridoma) VH: EVKLEESGGGLVQPGGSMKLSCAASGFTFSDAWMDWVRQSPEKGLEWVAEIRHKANDHAIFYDESVKGRFTISRDDSKSIVYLQMNSLRPEDTGIYYCTSPFAYWGQGTLVTVSA VL: DIVMTQSQRFMSVTVGDRVSITCKASQSVGTTIVWYQQKPGQSPKLLIYSASTRYTGVPDRFTGGGSGTDFILTINNVQSEDLADYFCQQYSSYPFTFGSGTKLEIKR
